In PMC10484734, “TLK1-mediated RAD54 phosphorylation spatio-temporally regulates Homologous Recombination Repair” (Nucleic Acids Research, 2023):
Positions count from the first letter of the chain named.

Tests used:
[1] = molecular target: T1, RAD54-T41, T59D (RAD54-T2D), recombinant (human, UniProt Q92698 1-747, T41D | T59D); assay: pull-down; purified RAD54 forms with RAD51; reactions eluted from beads, eluate and supernatant on silver-stained gels, quantified; which protein was held on the beads is not told; conditions: both partners purified
T1 construct: human RAD54 (RAD54L) with the phosphomimic changes T41D and T59D; also called NTD phosphomimic; source: recombinant, purified
T1 sequence (looked up): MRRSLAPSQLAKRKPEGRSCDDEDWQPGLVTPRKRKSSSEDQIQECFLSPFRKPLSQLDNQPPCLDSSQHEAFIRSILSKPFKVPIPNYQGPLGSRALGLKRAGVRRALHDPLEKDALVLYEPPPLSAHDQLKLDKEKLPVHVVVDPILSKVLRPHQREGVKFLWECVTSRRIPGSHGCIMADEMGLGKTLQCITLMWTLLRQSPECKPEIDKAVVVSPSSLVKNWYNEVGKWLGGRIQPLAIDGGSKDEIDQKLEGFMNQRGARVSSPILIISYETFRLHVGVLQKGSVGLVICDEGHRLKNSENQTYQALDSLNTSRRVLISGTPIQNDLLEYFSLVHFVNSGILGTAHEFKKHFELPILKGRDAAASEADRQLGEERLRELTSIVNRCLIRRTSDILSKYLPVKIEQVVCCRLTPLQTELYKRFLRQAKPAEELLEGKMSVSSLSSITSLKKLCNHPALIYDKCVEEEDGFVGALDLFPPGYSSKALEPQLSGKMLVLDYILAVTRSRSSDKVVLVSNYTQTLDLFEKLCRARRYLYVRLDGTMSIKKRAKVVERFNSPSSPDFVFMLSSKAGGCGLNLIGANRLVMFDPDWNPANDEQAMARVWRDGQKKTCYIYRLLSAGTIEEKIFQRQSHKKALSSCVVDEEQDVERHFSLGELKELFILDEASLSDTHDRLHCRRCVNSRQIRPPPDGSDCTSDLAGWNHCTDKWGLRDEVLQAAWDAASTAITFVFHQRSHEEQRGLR

RAD54-T700D, recombinant = molecular target: T2, RAD54-T700D, recombinant (human, UniProt Q92698 1-747, T700D); assay: as above; conditions: both partners purified
T2 construct: human RAD54 (RAD54L) with the phosphomimic change T700D; also called purified RAD54-T700D; CTD mutant; source: recombinant, purified
T2 sequence (looked up): T1 sequence (looked up) with D41T, D59T, T700D

- binding result [1]: binds
- binding result (RAD54-T700D, recombinant): binds
B1: recombinant human RAD51 (natural protein, UniProt Q06609 1-339, looked up)
chain: MAMQMQLEANADTSVEEESFGPQPISRLEQCGINANDVKKLEEAGFHTVEAVAYAPKKELINIKGISEAKADKILAEAAKLVPMGFTTATEFHQRRSEIIQITTGSKELDKLLQGGIETGSITEMFGEFRTGKTQICHTLAVTCQLPIDRGGGEGKAMYIDTEGTFRPERLLAVAERYGLSGSDVLDNVAYARAFNTDHQTQLLYQASAMMVESRYALLIVDSATALYRTDYSGRGELSARQMHLARFLRMLLRLADEFGVAVVITNQVVAQVDGAAMFAADPKKPIGGNIIAHASTTRLYLRKGRGETRICKIYDSPCLPEAEAMFAINADGVGDAKD
notes: human RAD51 recombinase; also called rc-RAD51
